The results in this text go back to PMC2754075 (Nature cell biology, 2009).

The test deals with MBP-VPRBP (UniProt Q9Y4B6 1-1507). Put plainly: pull-down.
MBP-VPRBP, sequence (Q9Y4B6 whole entry): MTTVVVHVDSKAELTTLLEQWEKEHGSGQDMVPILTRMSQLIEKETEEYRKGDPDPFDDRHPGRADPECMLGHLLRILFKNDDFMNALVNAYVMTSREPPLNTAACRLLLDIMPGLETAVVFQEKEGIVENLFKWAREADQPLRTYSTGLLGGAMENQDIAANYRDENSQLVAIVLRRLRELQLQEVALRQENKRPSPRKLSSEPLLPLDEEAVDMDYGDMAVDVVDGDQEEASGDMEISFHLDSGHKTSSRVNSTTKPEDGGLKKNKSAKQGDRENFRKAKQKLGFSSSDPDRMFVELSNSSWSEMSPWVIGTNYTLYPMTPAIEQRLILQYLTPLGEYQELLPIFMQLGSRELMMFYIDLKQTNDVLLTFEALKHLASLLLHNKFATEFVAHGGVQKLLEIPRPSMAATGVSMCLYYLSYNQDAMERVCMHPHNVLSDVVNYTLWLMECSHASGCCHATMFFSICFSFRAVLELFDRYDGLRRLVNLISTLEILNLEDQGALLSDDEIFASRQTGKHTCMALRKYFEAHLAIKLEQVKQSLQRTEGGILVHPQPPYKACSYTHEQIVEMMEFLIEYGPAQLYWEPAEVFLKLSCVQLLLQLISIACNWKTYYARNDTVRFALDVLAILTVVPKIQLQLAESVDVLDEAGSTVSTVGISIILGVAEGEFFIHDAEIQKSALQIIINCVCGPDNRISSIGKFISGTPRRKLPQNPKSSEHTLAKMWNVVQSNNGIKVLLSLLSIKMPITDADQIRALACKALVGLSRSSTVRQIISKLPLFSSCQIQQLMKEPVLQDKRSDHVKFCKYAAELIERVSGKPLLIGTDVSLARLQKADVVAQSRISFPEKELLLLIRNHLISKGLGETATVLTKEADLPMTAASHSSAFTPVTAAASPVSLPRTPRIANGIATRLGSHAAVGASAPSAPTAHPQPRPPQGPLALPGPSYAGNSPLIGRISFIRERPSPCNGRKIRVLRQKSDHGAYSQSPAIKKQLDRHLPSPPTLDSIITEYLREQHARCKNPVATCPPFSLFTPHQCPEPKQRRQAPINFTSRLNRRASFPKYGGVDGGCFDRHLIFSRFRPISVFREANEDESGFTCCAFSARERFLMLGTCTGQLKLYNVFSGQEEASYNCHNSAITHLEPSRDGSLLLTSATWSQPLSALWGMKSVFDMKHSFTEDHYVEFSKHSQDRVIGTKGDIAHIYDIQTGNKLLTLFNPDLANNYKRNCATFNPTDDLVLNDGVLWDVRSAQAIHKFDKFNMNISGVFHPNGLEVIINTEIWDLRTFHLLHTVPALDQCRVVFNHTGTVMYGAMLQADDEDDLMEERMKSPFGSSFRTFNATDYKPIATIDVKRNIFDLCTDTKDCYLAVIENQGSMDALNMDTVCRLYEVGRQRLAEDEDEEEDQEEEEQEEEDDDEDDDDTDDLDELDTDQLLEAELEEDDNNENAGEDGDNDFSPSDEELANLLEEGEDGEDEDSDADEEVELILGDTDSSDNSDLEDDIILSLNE

B1: GST-Katanin (natural protein)
chain: MSLLMISENVKLAREYALLGNYDSAMVYYQGVLDQMNKYLYSVKDTYLQQKWQQVWQEINVEAKHVKDIMKTLESFKLDSTPLKAAQHDLPASEGEVWSMPVPVERRPSPGPRKRQSSQYSDPKSHGNRPSTTVRVHRSSAQNVHNDRGKAVRCREKKEQNKGREEKNKSPAAVTEPETNKFDSTGYDKDLVEALERDIISQNPNVRWDDIADLVEAKKLLKEAVVLPMWMPEFFKGIRRPWKGVLMVGPPGTGKTLLAKAVATECKTTFFNVSSSTLTSKYRGESEKLVRLLFEMARFYSPATIFIDEIDSICSRRGTSEEHEASRRVKAELLVQMDGVGGTSENDDPSKMVMVLAATNFPWDIDEALRRRLEKRIYIPLPSAKGREELLRISLRELELADDVDLASIAENMEGYSGADITNVCRDASLMAMRRRIEGLTPEEIRNLSKEEMHMPTTMEDFEMALKKVSKSVSAADIERYEKWIFEFGSC
Turning to B1, the binding result is listed as “binds”.
